The test system of this data set is Escherichia coli TOP10. In words: shrunken log2 fold change of peptide-encoding DNA abundance (4.5 h post-induction vs induction); higher = less antimicrobial activity (less host growth inhibition). Particulars: time post-induction: 4.5 h; library: site-saturation at positions 5, 18, 19, 20.
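Note: peptides expressed intracellularly from a pBAD plasmid library in pooled LB shake-flask culture, induced with 0.3% L-arabinose, DNA abundance read by NGS, three biological replicates, DESeq2 with apeglm shrinkage.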

Take RRIRMRPPRLPRPRPRPNIQPRP: the “shrunken log2 fold change” value is -0.112. Consider RRIRLRPPRLPRPRPRPWHPPRP, for which the “shrunken log2 fold change” value was -0.0174. The same measure for RRIRSRPPRLPRPRPRPDYHPRP: -0.271; for RRIRRRPPRLPRPRPRPEYRPRP: -0.0195; for RRIRWRPPRLPRPRPRPVGCPRP: 0.575. The same measure for RRIRARPPRLPRPRPRPQYVPRP: -0.116; for RRIRMRPPRLPRPRPRPPDDPRP: 0.0932; for RRIRARPPRLPRPRPRPFVSPRP: -0.00645.

RRIRNRPPRLPRPRPRPSGVPRP: the “shrunken log2 fold change” value is -0.0499. The same measure for RRIRPRPPRLPRPRPRPETIPRP: -0.157; for RRIRYRPPRLPRPRPRPSLNPRP: -0.646. As for RRIRARPPRLPRPRPRPESFPRP, the figure is 0.807. As for RRIRYRPPRLPRPRPRPYKPPRP, the figure is -0.0475. In the case of RRIRDRPPRLPRPRPRPAIYPRP, the “shrunken log2 fold change” value was found to be 0.00069. As for RRIRLRPPRLPRPRPRPEWFPRP, the figure is 0.161; as for RRIRMRPPRLPRPRPRPIASPRP, 0.0465.

Take RRIRMRPPRLPRPRPRPFNCPRP: the “shrunken log2 fold change” value is -0.643. On to RRIRIRPPRLPRPRPRPQVIPRP, for which the “shrunken log2 fold change” value was -0.0417. As for RRIRDRPPRLPRPRPRPYPTPRP, the figure is -0.635; as for RRIRARPPRLPRPRPRPWTNPRP, 0.124. As for RRIRMRPPRLPRPRPRPYPPPRP, the figure is 0.133. For RRIRWRPPRLPRPRPRPLWKPRP, the “shrunken log2 fold change” value is -0.128. As for RRIRHRPPRLPRPRPRPRLCPRP, the figure is 0.0797; as for RRIRCRPPRLPRPRPRPHKGPRP, -0.363; as for RRIRIRPPRLPRPRPRPYQAPRP, -0.342. The same measure for RRIRYRPPRLPRPRPRPPFLPRP: -0.178; for RRIRKRPPRLPRPRPRPRGCPRP: 0.128; for RRIRVRPPRLPRPRPRPAHGPRP: 0.0221. As for RRIRHRPPRLPRPRPRPPVNPRP, the “shrunken log2 fold change” value is 0.0303. The same measure for RRIRWRPPRLPRPRPRPFLLPRP: -0.0846; for RRIRIRPPRLPRPRPRPYKRPRP: -0.0487.

Regarding RRIRCRPPRLPRPRPRPMNGPRP, the “shrunken log2 fold change” value is -0.0977.

Take RRIRNRPPRLPRPRPRPLGWPRP: the “shrunken log2 fold change” value amounted to 0.367. The same measure for RRIRRRPPRLPRPRPRPAPEPRP: 2.07; for RRIRNRPPRLPRPRPRPHTNPRP: 0.0886. The same measure for RRIRIRPPRLPRPRPRPSMHPRP: -0.511; for RRIRARPPRLPRPRPRPLQIPRP: 0.0194; for RRIRHRPPRLPRPRPRPHWNPRP: -0.407.

As for RRIRLRPPRLPRPRPRPMTFPRP, the “shrunken log2 fold change” value is -0.263.

With RRIRGRPPRLPRPRPRPKIRPRP, the “shrunken log2 fold change” value was 0.118. The same measure for RRIRQRPPRLPRPRPRPSNNPRP: -0.729. As for RRIRNRPPRLPRPRPRPYLHPRP, the figure is -0.429. As to RRIRHRPPRLPRPRPRPGLHPRP, the “shrunken log2 fold change” value is -0.308.

Consider RRIRPRPPRLPRPRPRPVERPRP, for which the “shrunken log2 fold change” value amounted to 0.289. Regarding RRIRARPPRLPRPRPRPGMNPRP, the “shrunken log2 fold change” value is -0.0966.

On to RRIRIRPPRLPRPRPRPGPVPRP, for which the “shrunken log2 fold change” value was -0.0724. The same measure for RRIRDRPPRLPRPRPRPPMGPRP: 0.283. The same measure for RRIRIRPPRLPRPRPRPGNFPRP: -0.064; for RRIRPRPPRLPRPRPRPNPVPRP: -0.0737.

For RRIRKRPPRLPRPRPRPHWGPRP, the “shrunken log2 fold change” value was determined as 0.209. The same measure for RRIRTRPPRLPRPRPRPIHTPRP: -0.371; for RRIRARPPRLPRPRPRPHAMPRP: 0.177. As for RRIRQRPPRLPRPRPRPEKLPRP, the “shrunken log2 fold change” value was -0.12. In the case of RRIRKRPPRLPRPRPRPGVWPRP, the “shrunken log2 fold change” value was 0.786. RRIRKRPPRLPRPRPRPIWMPRP: the “shrunken log2 fold change” value is -0.0467. As for RRIRARPPRLPRPRPRPQRLPRP, the figure is 0.247. The same measure for RRIRSRPPRLPRPRPRPGEDPRP: 0.106.

Consider RRIRKRPPRLPRPRPRPMVVPRP, for which the “shrunken log2 fold change” value is -0.0348. The same measure for RRIRMRPPRLPRPRPRPDSQPRP: 1.35. As for RRIRTRPPRLPRPRPRPQYPPRP, the figure is -0.923. As for RRIRCRPPRLPRPRPRPYILPRP, the figure is -1.53; as for RRIRLRPPRLPRPRPRPQEMPRP, -0.0408. In the case of RRIRSRPPRLPRPRPRPPVGPRP, the “shrunken log2 fold change” value turned out to be 0.457. As for RRIRYRPPRLPRPRPRPALNPRP, the figure is -0.541; as for RRIRLRPPRLPRPRPRPESGPRP, 0.0315; as for RRIRPRPPRLPRPRPRPIPLPRP, -0.191. Consider RRIRERPPRLPRPRPRPQAEPRP, for which the “shrunken log2 fold change” value was -0.0297.

RRIRPRPPRLPRPRPRPWDCPRP: the “shrunken log2 fold change” value was -0.0719.

On to RRIRLRPPRLPRPRPRPFVNPRP, for which the “shrunken log2 fold change” value is -0.372. Consider RRIRPRPPRLPRPRPRPYAWPRP, for which the “shrunken log2 fold change” value is -0.152. The same measure for RRIRARPPRLPRPRPRPLNYPRP: 0.0659; for RRIRCRPPRLPRPRPRPQNVPRP: -0.749; for RRIRPRPPRLPRPRPRPTYVPRP: 0.0486. As for RRIRRRPPRLPRPRPRPKIEPRP, the figure is 0.0387. As for RRIRRRPPRLPRPRPRPVFHPRP, the figure is 0.258; as for RRIRIRPPRLPRPRPRPNCNPRP, -0.845; as for RRIRSRPPRLPRPRPRPLATPRP, 0.627. Consider RRIRLRPPRLPRPRPRPCPMPRP, for which the “shrunken log2 fold change” value was -0.444. As for RRIRIRPPRLPRPRPRPAEMPRP, the figure is 0.0228. The same measure for RRIRYRPPRLPRPRPRPDPGPRP: -0.124; for RRIRVRPPRLPRPRPRPWFEPRP: -0.313; for RRIRFRPPRLPRPRPRPDHHPRP: -0.452.

With RRIRQRPPRLPRPRPRPLVHPRP, the “shrunken log2 fold change” value is -0.203. The same measure for RRIRARPPRLPRPRPRPCYIPRP: -0.607; for RRIRKRPPRLPRPRPRPKYPPRP: 0.0162. The same measure for RRIRKRPPRLPRPRPRPRCTPRP: 0.555; for RRIRWRPPRLPRPRPRPPSFPRP: -0.0861. The same measure for RRIRVRPPRLPRPRPRPQWKPRP: -0.207. Consider RRIRKRPPRLPRPRPRPFNNPRP, for which the “shrunken log2 fold change” value was -0.0235.

On to RRIRFRPPRLPRPRPRPMWDPRP, for which the “shrunken log2 fold change” value was -0.469.

For RRIRWRPPRLPRPRPRPHMVPRP, the “shrunken log2 fold change” value was -0.069. Turning to RRIRTRPPRLPRPRPRPVGFPRP, the “shrunken log2 fold change” value was -0.225.

For the sequence RRIRARPPRLPRPRPRPWLCPRP, the “shrunken log2 fold change” value was determined as 0.116. The same measure for RRIRKRPPRLPRPRPRPWQWPRP: 0.0199; for RRIRWRPPRLPRPRPRPEFRPRP: 0.422; for RRIRIRPPRLPRPRPRPISEPRP: -0.492.

On to RRIRTRPPRLPRPRPRPLWGPRP, for which the “shrunken log2 fold change” value is -0.0731. For RRIRLRPPRLPRPRPRPYHMPRP, the “shrunken log2 fold change” value is -0.146.

RRIRNRPPRLPRPRPRPDPFPRP: the “shrunken log2 fold change” value was -0.582. With RRIRDRPPRLPRPRPRPGHNPRP, the “shrunken log2 fold change” value was -0.0961. The same measure for RRIRLRPPRLPRPRPRPCLRPRP: -0.0817; for RRIRLRPPRLPRPRPRPYYTPRP: -0.76. The same measure for RRIRVRPPRLPRPRPRPLWPPRP: 0.176; for RRIRMRPPRLPRPRPRPDEHPRP: 2.21. The same measure for RRIRARPPRLPRPRPRPRRPPRP: 0.494. Consider RRIRERPPRLPRPRPRPLSRPRP, for which the “shrunken log2 fold change” value amounted to 0.00391.

As to RRIRRRPPRLPRPRPRPDKRPRP, the “shrunken log2 fold change” value was -0.0396. As for RRIRCRPPRLPRPRPRPPQYPRP, the figure is -0.0607. As for RRIRDRPPRLPRPRPRPRFQPRP, the figure is 0.491; as for RRIRTRPPRLPRPRPRPGTTPRP, -0.342. As for RRIRQRPPRLPRPRPRPARKPRP, the figure is 0.0862; as for RRIRGRPPRLPRPRPRPYPCPRP, -0.0571.

As to RRIRDRPPRLPRPRPRPYYQPRP, the “shrunken log2 fold change” value is -1.03. The same measure for RRIRDRPPRLPRPRPRPCAEPRP: 0.508; for RRIRQRPPRLPRPRPRPKEWPRP: -0.00145.

As to RRIRRRPPRLPRPRPRPYYGPRP, the “shrunken log2 fold change” value is -0.132. The same measure for RRIRVRPPRLPRPRPRPQLPPRP: -0.0715; for RRIRMRPPRLPRPRPRPNPKPRP: 0.023; for RRIRMRPPRLPRPRPRPNWDPRP: 0.0485. As for RRIRPRPPRLPRPRPRPKCKPRP, the figure is -0.207; as for RRIRERPPRLPRPRPRPEPQPRP, 0.519; as for RRIRMRPPRLPRPRPRPMWHPRP, 0.208. In the case of RRIRDRPPRLPRPRPRPCKVPRP, the “shrunken log2 fold change” value was -0.202.

On to RRIRKRPPRLPRPRPRPSKAPRP, for which the “shrunken log2 fold change” value was -0.0406. The same measure for RRIRNRPPRLPRPRPRPVDIPRP: 0.00355.
